In assay [1] the target is naturally cleaved, untagged human BAFF E223K (human). The assay can be described thus: SEC; concentrated 293 T supernatants of naturally cleaved BAFF fractionated on Superdex 200 Increase; fractions blotted with anti-BAFF antibodies; oligomer seen in the fractions. On the technique in general: SEC sorts molecules by how far they enter the pores of the column.
In assay [2] the target is naturally cleaved, untagged human BAFF H218A (human). Described as above.
Assay [3] addresses His-tagged human BAFF (60-mer) (human) (UniProt Q9Y275). The assay can be described thus: SEC; purified His-tagged BAFF alone on Superdex 200 Increase, against molecular weight standards.
Assay [4] has as its target T1, FLAG-tagged human BAFF 3-mer, E223K (human, UniProt Q9Y275 134-285, E223K).
T1 construct: human BAFF (TNFSF13B), soluble form; also called FLAG-hBAFF E223K; source: 293 T cells, transient transfection, supernatant, size fractionated by gel filtration (3-mer fractions 15 + 16)
Nature of the assay: ELISA; direct binding: BAFFR-Fc, BCMA-Fc or TACI-Fc (human or mouse) adsorbed at 1 µg/ml; FLAG-tagged BAFF 3-mers of the corresponding species 1 h at 37 °C in PBS, 0.4% milk, 0.05% Tween-20; biotinylated anti-FLAG detection. The following applies: both partners purified. In general terms: An ELISA detects its analyte on a solid surface through an enzyme-linked reagent.

The target in assay [5] is T2, FLAG-tagged human BAFF 3-mer, H218A (human, UniProt Q9Y275 134-285, H218A).
T2 construct: human BAFF (TNFSF13B), soluble form; also called FLAG-hBAFF H218A; source: 293 T cells, transient transfection, supernatant, size fractionated by gel filtration (3-mer fractions 15 + 16)
Described as above. The note with it: both partners purified.

Assay [6] concerns the target T3, FLAG-tagged mouse BAFF 3-mer, H242A (mouse, UniProt Q9WU72 127-309, H242A).
T3 construct: mouse BAFF (Tnfsf13b), soluble form; also called FLAG-mBAFF H242A; source: 293 T cells, transient transfection, supernatant, size fractionated by gel filtration (3-mer fractions 13 + 14)
T3 sequence (looked up): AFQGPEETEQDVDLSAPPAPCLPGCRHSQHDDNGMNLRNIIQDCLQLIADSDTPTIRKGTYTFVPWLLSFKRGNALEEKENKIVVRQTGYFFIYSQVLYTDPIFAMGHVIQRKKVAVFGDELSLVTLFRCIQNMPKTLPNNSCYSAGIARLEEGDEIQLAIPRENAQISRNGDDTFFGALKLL
Described as above. The note with it: both partners purified.

Assay [7] concerns the target T4, FLAG-tagged mouse BAFF 3-mer, wild type (mouse, UniProt Q9WU72 127-309).
T4 construct: mouse BAFF (Tnfsf13b), soluble form; also called FLAG-mBAFF WT; mBAFF; source: 293 T cells, transient transfection, supernatant, size fractionated by gel filtration (3-mer fractions 13 + 14)
Described as above. The following applies: both partners purified.

The target of assay [8] is T5, FLAG-tagged mouse BAFF 3-mer, E247K (mouse, UniProt Q9WU72 127-309, E247K).
T5 construct: mouse BAFF (Tnfsf13b), soluble form; also called FLAG-mBAFF E247K; source: 293 T cells, transient transfection, supernatant, size fractionated by gel filtration (3-mer fractions 13 + 14)
T5 sequence (looked up): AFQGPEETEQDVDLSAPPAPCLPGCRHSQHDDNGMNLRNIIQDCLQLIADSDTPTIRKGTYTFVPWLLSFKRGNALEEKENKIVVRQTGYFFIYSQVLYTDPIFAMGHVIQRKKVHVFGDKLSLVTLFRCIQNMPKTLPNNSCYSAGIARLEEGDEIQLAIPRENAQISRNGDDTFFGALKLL
The description is as above. The note with it: both partners purified.

The target in assay [9] is T6, Fc-human BAFF, wild type (human, UniProt Q9Y275).
T6 construct: human BAFF (TNFSF13B); called an intrinsically cross-linked BAFF; also called Fc-hBAFF WT; Fc-BAFF
Nature of the assay: ELISA; Fc-hBAFF (WT or H218A) coated at 1 µg/ml; soluble Fc-BAFF (WT or H218A) titrated, then biotinylated Fab of belimumab (50 µl of 100 ng/ml); streptavidin-peroxidase detection; relative affinity. The note with it: both partners purified.

The record followed here is article PMC5865128 (Nature Communications, 2018).

By stoichiometry N is commonly meant the number of molecules, sites or subunits per partner or assembly.

As for “naturally cleaved, untagged human BAFF E223K (ligand)”, the stoichiometry N in [1] was determined as 3.
As to “naturally cleaved, untagged human BAFF H218A (ligand)”, in assay [2], the stoichiometry N was found to be 3.
“His-tagged human BAFF (60-mer) (from UniProt Q9Y275 134-285) (ligand)” had a stoichiometry N in assay [3] of 60.

B1: human BCMA-Fc (Fc fusion, UniProt Q02223 1-54, looked up)
chain: MLQMAGQCSQNEYFDSLLHACIPCQLRCSSNTPPLTCQRYCNASVTNSVKGTNA
notes: human BCMA (TNFRSF17); also called TNFRSF17
Take B1: the binding result in assay [4] and in assay [5] was “binds” throughout.

B2: mouse BAFFR-Fc (Fc fusion, UniProt Q9D8D0 1-71, looked up)
chain: MGARRLRVRSQRSRDSSVPTQCNQTECFDPLVRNCVSCELFHTPDTGHTSSLEPGTALQPQEGSALRPDVA
notes: mouse BAFF receptor (BAFFR); also called mBAFFR-Fc
Regarding B2, the binding result in assay [6], in assay [7] and in [8] was “binds” each time.
With MAQQCFHSEYFDSLLHACKPCHLRCSNPPATCQPYCDPSVTSSVKGTYT (Fc fusion, UniProt O88472 1-49, looked up, mouse BCMA) [mouse BCMA-Fc], the binding result in assay [6], in assay [7] and in [8] was “binds” in each case.

B3: mouse TACI-Fc (Fc fusion, UniProt Q9ET35 1-128, looked up)
chain: MAMAFCPKDQYWDSSRKSCVSCALTCSQRSQRTCTDFCKFINCRKEQGRYYDHLLGACVSCDSTCTQHPQQCAHFCEKRPRSQANLQPELGRPQAGEVEVRSDNSGRHQGSEHGPGLRLSSDQLTLYC
notes: mouse TACI
Turning to B3, the binding result in assay [6], in assay [7] and in assay [8] was “binds” throughout.

B4: Fab fragment of belimumab (Fab, V domains shown)
VH: QVQLQQSGAEVKKPGSSVRVSCKASGGTFNNNAINWVRQAPGQGLEWMGGIIPMFGTAKYSQNFQGRVAITADESTGTASMELSSLRSEDTAVYYCARSRDLLLFPHHALSPWGRGTMVTVSS
VL: SSELTQDPAVSVALGQTVRVTCQGDSLRSYYASWYQQKPGQAPVLVIYGKNNRPSGIPDRFSGSSSGNTASLTITGAQAEDEADYYCSSRDSSGNHWVFGGGTELTVL
notes: heavy-chain part of the Fab; as the light chain of m24; also called belimumab Fab; source: papain digestion of belimumab, flowthrough of Protein A, size-fractionated (Superdex 200 Increase)
In the case of B4, the binding result in assay [9] is listed as “binds”.
